The supplement of paper PMC10724198
± gives the standard deviation of the averaged measurements.

Tested on: Saccharomyces cerevisiae
Test: protein stability index of tFT-peptide fusion (C-terminal peptide) (PSI (0-1 scale)); higher = more stable (slower turnover)
Details: genetic background: wild type; temperature: 30 C
Experimental: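 Multiplexed protein stability (MPS) profiling in S. cerevisiae. Random 12-aa peptides (tFT-X12 library) are fused to the C-terminus of a sfGFP-mCherry tandem fluorescent timer, after mCherry and a GGGS linker. Cells are FACS-sorted into 8 mCherry/sfGFP bins and deep-sequenced. The protein stability index (PSI) is the read-weighted bin average, scaled from 0 (unstable) to 1 (stable). Only peptides with >10 reads are reported; cells were grown at 30 °C in SC-His with glucose.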
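Also: PSI is a weighted mean of sequencing reads over stability bins, variants kept only with over 10 reads, mCherry proximal and sfGFP distal, peptide attached via GGGS linker.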

Sequence	protein stability index
GTGEMNDKDQEE	0.798 ± 0.12
GTKEYKKNRKII	0.653 ± 0.03
GTQPAAGNTPWA	0.703 ± 0.029
GTSPSSVRPLCG	0.7043 ± 0.0069
GTTHRSKRLRRK	0.768 ± 0.035
GTVEGAVQGLVE	0.718 ± 0.045
GTVRGVVRGRGG	0.664 ± 0.012
GTVSEGAMSVGF	0.809 ± 0.11
GTVWQSNSGAAT	0.68 ± 0.028
GTWAGGGWSCES	0.696 ± 0.039
GTYNIGVFAPEN	0.653 ± 0.032
GVACEGRGGRCW	0.689 ± 0.012
GVANSPTVRERT	0.666 ± 0.018
GVCASGAGSVGG	0.662 ± 0.029
GVCLQGRRASGE	0.693 ± 0.091
GVCQSEKSARGI	0.664 ± 0.05
GVDGLLRVYVME	0.674 ± 0.029
GVEGASVLGWGR	0.704 ± 0.19
GVGAPRLPPRPG	0.696 ± 0.012
GVGEWRSGVGVG	0.592 ± 0.043
GVGFGWGGVWME	0.691 ± 0.0073
GVGGEGRNDALI	0.635 ± 0.037
GVGGEIGRGGEY	0.676 ± 0.035
GVGGEPDLADWG	0.762 ± 0.023
GVGGGGCVLVRG	0.723 ± 0.018

Sequence	protein stability index
GVGGGGIGVGMG	0.7262 ± 0.0018
GVGGPLRPGPCQ	0.758 ± 0.24
GVGGVARGERIP	0.678 ± 0.0085
GVGLSGEGGLGR	0.642 ± 0.015
GVGQGGPVVVGR	0.665 ± 0.024
GVGREGGCWRTG	0.702 ± 0.11
GVGRPSDGPFRA	0.666 ± 0.047
GVGSCVILRLRN	0.557 ± 0.02
GVGWGDVWGCGE	0.741 ± 0.038
GVGWWLGLGVIW	0.692 ± 0.029
GVIYFSLSSFPL	0.655 ± 0.14
GVLGGAGCGVVL	0.731 ± 0.023
GVLPYRYRGLVL	0.64 ± 0.16
GVLRAWARLWGN	0.599 ± 0.039
GVLRICFGGLVS	0.729 ± 0.031
GVLRIRIGLGRG	0.653 ± 0.028
GVLRPLVGALGM	0.609 ± 0.0083
GVNMGKIYKIRN	0.649 ± 0.03
GVPPFAPPPPPH	0.703 ± 0.015
GVPPTPTHPCTC	0.758 ± 0.072
GVPYSPKSHRDH	0.643 ± 0.047
GVRERSCIKKAR	0.604 ± 0.058
GVRGVSHMDGGD	0.758 ± 0.16
GVSAPRFPGALA	0.69 ± 0.01
GVSLREASVAAI	0.7104 ± 0.0055

Sequence	protein stability index
GVSVICGFPVSC	0.732 ± 0.056
GVSWSWGDLAVL	0.756 ± 0.016
GVTGGGVVNRGV	0.689 ± 0.088
GVVIGWAGYKGT	0.671 ± 0.043
GVVLDVRCVGLF	0.661 ± 0.021
GVVRSSRRYSFR	0.705 ± 0.034
GVVSRGGRRLGV	0.7011 ± 0.0035
GVWPWWGWSCCF	0.782 ± 0.1
GVYNGGIPQVLQ	0.6843 ± 0.0028
GVYSVACVSGSV	0.64 ± 0.014
GWAFGVRGMIKK	0.74 ± 0.043
GWAVGGGGGRGR	0.617 ± 0.057
GWCAPLGLLLVL	0.539 ± 0.031
GWCGGLWRFGWG	0.723 ± 0.092
GWDCKGNDCWNG	0.693 ± 0.055
GWDQSGVVFVCG	0.605 ± 0.017
GWDSGHLVVMEI	0.715 ± 0.033
GWESERWSTLHK	0.763 ± 0.024
GWEVGGGRLGVV	0.716 ± 0.11
GWGCGGGGAWSG	0.767 ± 0.018
GWGFLGGTVAAV	0.697 ± 0.035
GWGGLFGCWVCG	0.656 ± 0.015
GWGIFRISSFGT	0.713 ± 0.018
GWGPSSAGGAGG	0.752 ± 0.12
GWGWGSMDLRDR	0.6919 ± 0.0024

Sequence	protein stability index
GWIGVFGLFGCG	0.752 ± 0.083
GWKLGAVRRGVI	0.706 ± 0.015
GWLGGGVRLGRL	0.714 ± 0.067
GWRACWVRAPRW	0.708 ± 0.018
GWRRSWVWDVGG	0.699 ± 0.027
GWRSGGVYDGNI	0.6572 ± 0.0027
GWSVDGVVLGAP	0.728 ± 0.046
GWVFCLFPVGGL	0.607 ± 0.051
GWVGGCGGGRGI	0.683 ± 0.0092
GWVHGEDMAVFG	0.7 ± 0.0049
GWVVSGIFGRCC	0.689 ± 0.013
GWWLFRSRWWHE	0.573 ± 0.022
GWWWGGGGAWSG	0.718 ± 0.071
GYGWGVGGGFGR	0.691 ± 0.019
GYLEGMVYRESD	0.689 ± 0.025
GYLNCFGYVWGP	0.653 ± 0.04
GYSSPPLITIPH	0.659 ± 0.023
HALFPRAPSPPW	0.7513 ± 0.0055
HAVRQNDTYKHG	0.74 ± 0.087
HCPRPRPTCRPP	0.615 ± 0.1
HCSGGFRCPPLV	0.6862 ± 0.0046
HDEGLEGLTVVF	0.675 ± 0.019
HECVRGLSFVLV	0.668 ± 0.081
HEEPEVPEIQHV	0.743 ± 0.063
HFSRNYINENVS	0.716 ± 0.04

Sequence	protein stability index
HFWGCCRRRCLK	0.66 ± 0.051
HGKGLKEKRVEG	0.672 ± 0.041
HGKNLALNEKCW	0.691 ± 0.034
HGSYYSAVWGKG	0.684 ± 0.096
HHRVLRCNNPFR	0.731 ± 0.12
HHSAPARLAFRY	0.673 ± 0.023
HHTDSLRPTAPH	0.73 ± 0.054
HISHPTGDVQTP	0.627 ± 0.083
HKSRHSPKPPFT	0.6677 ± 0.0026
HLPLLLFHPPLH	0.637 ± 0.0051
HLPPPPRITVVP	0.716 ± 0.073
HLPPPPSPSPPP	0.686 ± 0.012
HLQLCAPISTTD	0.652 ± 0.07
HLTVSRIRLISK	0.658 ± 0.079
HLYARHCPPPNR	0.677 ± 0.052
HNKSGEKKKKEA	0.697 ± 0.0076
HNPRTCRAPLSL	0.671 ± 0.0079
HPAAPPPPPPPR	0.732 ± 0.066
HPAPNPGFHFDR	0.733 ± 0.065
HPAPVPSAPSDA	0.678 ± 0.054
HPDPSPPTKPPP	0.68 ± 0.031
HPFASRSRFTPR	0.753 ± 0.063
HPGLRLENVNPQ	0.702 ± 0.014
HPHPPQSTNPYT	0.677 ± 0.058
HPHVPAPRVPHP	0.721 ± 0.047

Sequence	protein stability index
HPNPYTTPGTPA	0.625 ± 0.0078
HPPPPAPTPSSR	0.711 ± 0.04
HPPPPPRSLPLP	0.692 ± 0.08
HPPPPPSPPGLP	0.6578 ± 0.0013
HPPSSSHTQPPR	0.683 ± 0.014
HPPTPPPPFPPP	0.659 ± 0.018
HPSAVPHPPDIV	0.659 ± 0.046
HPSPTAPPSASN	0.66 ± 0.022
HPTAILLVPLLL	0.597 ± 0.029
HQCVIVNFEKYD	0.669 ± 0.038
HQSSHTRMARSL	0.723 ± 0.013
HRIHRSLLTGGR	0.708 ± 0.021
HRQTAKLKRIVI	0.651 ± 0.093
HRREEDQRPYSR	0.768 ± 0.021
HRTLPPPPLTVP	0.579 ± 0.027
HRVRICWVPRSR	0.674 ± 0.027
HSCLVRSDPPPS	0.704 ± 0.12
HSPSHPGSPHAC	0.7 ± 0.033
HSPSKLSSSTAT	0.681 ± 0.032
HSRSRAEPHHPP	0.555 ± 0.037
HSTSLLPSGSWF	0.734 ± 0.016
